Measured values taken from patent US11673947B2, “Target tissue-specific antigen-binding molecule” (Chugai Seiyaku Kabushiki Kaisha, priority 2012, dated 2023).
Residue numbers refer to the chain shown, from its start.

Tests used:
hIL-6R [1] = target: T1, hIL-6R (Homo sapiens, UniProt P08887); experiment: Phage ELISA, binding to hIL-6R in the presence or absence of SC; conditions: in the presence of SC
T1 sequence (P08887 20-355 limits assumed): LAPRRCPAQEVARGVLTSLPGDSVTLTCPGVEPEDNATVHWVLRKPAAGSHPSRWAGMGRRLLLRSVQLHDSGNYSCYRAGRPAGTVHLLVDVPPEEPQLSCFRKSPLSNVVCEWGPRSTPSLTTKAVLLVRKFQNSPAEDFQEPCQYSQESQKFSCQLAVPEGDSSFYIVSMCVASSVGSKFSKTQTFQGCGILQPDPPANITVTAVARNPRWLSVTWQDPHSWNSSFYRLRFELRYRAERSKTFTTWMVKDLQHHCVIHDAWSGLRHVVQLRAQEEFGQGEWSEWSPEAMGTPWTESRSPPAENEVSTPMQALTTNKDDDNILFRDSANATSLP
Description: Culture supernatants containing phages were collected according to a conventional method (Methods Mol. Biol. (2002) 178, 133-145) from single colonies of E. coli obtained as described in (14-2). Phages purified by the method described in (2-4) were subjected to ELISA by the following procedure. A StreptaWell 96 microtiter plate (Roche) was coated overnight with 100 μl of TBS containing biotin-labeled hIL-6R. After biotin-labeled hIL-6R was removed by washing each well of the plate with TBST, the wells were blocked with 250 μl of 2% skim milk/TBS for one hour or more. 2% skim milk/TBS was removed, and then the prepared, purified phages were added to each well. The plate was allowed to stand at room temperature for one hour to allow binding of antibody-displaying phages to biotin-labeled hIL-6R in each well in the presence or absence of SC. After washing with TBST or SC/TBST, an HRP-conjugated anti-M13 antibody (Amersham Pharmacia Biotech) diluted with TBS or SC/TBS was added to each well. The plate was incubated for one hour. Following wash with TBST or SC/TBST, the TMB single solution (ZYMED) was added to each well. The chromogenic reaction in the solution of each well was terminated by adding sulfuric acid. Then, the developed color was assessed by measuring absorbance at 450 nm.

hIL-6R [2] = target: T1, hIL-6R; experiment: IgG ELISA, binding to hIL-6R in the presence or absence of each small molecule, amino acid or amino acid metabolite
Description: Three types of antibodies obtained: 6RNMSC1-2_F02 and 6RNMSC1-3_G02, and GC413 were subjected to ELISA under the nine conditions described in Table 3. Meanwhile, each small molecule was appropriately prepared at the concentrations shown in Table 3 using the buffers indicated in Table 19. The antigen used was biotin-labeled hIL-6R.
First, a StreptaWell 96 microtiter plate (Roche) was coated at room temperature for one hour or more with 100 μl of PBS containing biotin-labeled hIL-6R. After washing with Wash buffer to remove unbound biotin-labeled hIL-6R from the plate, each well was blocked for one hour or more with 250 μl of Blocking Buffer. After Blocking Buffer was removed from each well, the purified IgGs were prepared to 2.5 μg/ml in Sample Buffer containing small molecules at the final concentrations shown in Table 3, and each was aliquoted at 100 μl into the plate. The plate was allowed to stand at room temperature for one hour to allow binding of each IgG to biotin-labeled hIL-6R in each well. After washing with Wash Buffer containing small molecules at the final concentrations shown in Table 3, an HRP-conjugated anti-human IgG antibody (BIOSOURCE) diluted with Sample Buffer containing the same small molecules was added to each well. The plate was incubated for one hour. Following wash with Wash Buffer containing each small molecule, the TMB single solution (ZYMED) was added to each well. The chromogenic reaction in the solution of each well was terminated by adding sulfuric acid. Then, the developed color was assessed by measuring absorbance at 450 nm.
6RNMSC1-2_F02 described in Example 14, which has antigen-binding activity in the presence of kynurenine, and negative control GC413 were subjected to ELISA under the seven conditions described in Table 18. Meanwhile, each small molecule was appropriately prepared at the concentrations shown in Table 18 using the buffers indicated in Table 4. The antigen used was biotin-labeled hIL-6R. ELISA was carried out using the method described in Example 11.

[3] = Competitive phage ELISA, inhibition of binding to biotin-labeled antigens by ATP; conditions: ATP from an equal amount up to 10000 times that of the antigen
Description: ATNLSA1-4_D12 and PF1 were each diluted with TBS and subjected to ELISA by the following procedure.
A StreptaWell 96 microtiter plate (Roche) was coated at room temperature for one hour with 100 μl of TBS containing biotin-labeled antigens (a mixture of 5′-adenosine-PEG-biotin and ATP-PEG-biotin). After the antigens were removed by washing each well of the plate with TBST, the wells were blocked with 250 μl of 2% skim milk/TBS for one hour or more. 2% skim milk/TBS was removed, and then the prepared, purified phages were added to each well. The plate was allowed to stand at room temperature for one hour to allow binding of the antibody-displaying phages to the antigens in each well. […] For the competition of the immobilized antigen with ATP, the plate was allowed to stand at room temperature for one hour. Then, after TBST wash, an HRP-conjugated anti-M13 antibody (Amersham Pharmacia Biotech) diluted with TBS was added to each well. The plate was incubated for one hour. Following TBST wash, the TMB single solution (ZYMED) was added to each well. The chromogenic reaction in the solution of each well was terminated by adding sulfuric acid. Then, the developed color was assessed by measuring absorbance at 450 nm.

human IL6 receptor = target: T2, human IL6 receptor (Homo sapiens, UniProt P08887); experiment: Phage ELISA, binding to human IL6 receptor in the presence or absence of adenosine and/or ATP; conditions: with or without 10 mM adenosine and ATP
T2 sequence (P08887 20-357 limits assumed): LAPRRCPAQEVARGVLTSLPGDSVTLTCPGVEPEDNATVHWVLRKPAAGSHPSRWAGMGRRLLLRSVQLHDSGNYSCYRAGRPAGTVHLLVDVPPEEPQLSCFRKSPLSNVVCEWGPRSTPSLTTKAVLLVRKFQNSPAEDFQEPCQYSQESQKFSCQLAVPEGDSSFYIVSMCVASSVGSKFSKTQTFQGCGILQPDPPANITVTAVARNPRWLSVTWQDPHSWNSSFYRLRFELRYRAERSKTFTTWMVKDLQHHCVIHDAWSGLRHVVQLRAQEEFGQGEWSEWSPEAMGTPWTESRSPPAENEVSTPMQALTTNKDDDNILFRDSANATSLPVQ
Description: Phage-containing culture supernatants were collected according to a conventional method (Methods Mol. Biol. (2002) 178, 133-145) from single colonies of E. coli obtained by the method described above. The collected culture supernatants were treated by ultrafiltration using NucleoFast 96 (MACHERY-NAGEL). 100 μl of the culture supernatants were added to each well of NucleoFast 96, and it was centrifuged (4500 g for 45 minutes) to remove flow through. After addition of 100 μl of H2O, the NucleoFast 96 was washed by centrifugation (4500 g for 30 minutes). Finally, 100 μl of TBS was added, and the NucleoFast 96 was allowed to stand for five minutes at room temperature. A phage suspension was collected from the supernatant in each well of the NucleoFast 96.
The purified phages, to which TBS or (adenosine+ATP)/TBS was added, were subjected to ELISA by the following procedure. A StreptaWell 96 microtiter plate (Roche) was coated overnight with 100 μl of TBS containing biotin-labeled antigen. […] Then, the developed color was assessed by measuring absorbance at 450 nm. […]
First, a StreptaWell 96 microtiter plate (Roche) was coated at room temperature for one hour or more with 100 μl of TBS containing a biotin-labeled antigen. […] Then, the developed color was assessed by measuring absorbance at 450 nm (FIGS. 25, 26, and 27). […]

B1: 6RNMSC1-3_G02: antibody that binds to hIL-6R in the presence of ATP; SEQ ID NOs: 88 and 89 (antibody, listed as Homo sapiens, V domains shown)
VH: EVQLVQSGGDLVKPGGSLRLSCAASGFTFSNYAMHWVRQAPGKGLEWVAVVSYDGSNKYYADSVKGRFTISRDNSKNTLYLQMNSLRAEDTAVYYCARLVPSSGYPGRFDPWGQGTLVTVSS
VL: NIQMTQSPSSLSASVGDRVTITCRASQSISSSLNWYQQIPGKAPKLLIYAASSLQSGVPSRFSGSGSGTDFTLTISSLQPEDFASYYCQQSYSAWTFGQGTKVEIK
binding activity to hIL-6R in the presence of a small molecule cocktail (phage ELISA) (hIL-6R [1]): have binding activity | absorbance under condition 1 compared to condition 8 (hIL-6R [2]; condition 1 (1 mM ATP-Na)): the same | absorbance under condition 9 as compared to condition 8 (hIL-6R [2]; condition 9 (in the absence of small molecules) vs condition 8 (complete small molecule cocktail solution)): markedly lower | absorbance under other conditions (hIL-6R [2]; remaining conditions of Table 3): markedly lower

B2: PF1: IL-6R-binding clone prepared as a negative control; SEQ ID NOs: 48 and 49 (antibody, V domains shown)
VH: QVQLQESGPGLVKPSETLSLTCAVSGYSISDDHAWSWVRQPPGEGLEWIGYISYSGITNYNPSLKGRVTISRDTSKNQFSLKLSSVTAADTAAYYCARVLARITAMDYWGEGTLVTVSS
VL: DIQMTQSPSSLSASVGDSVTITCQASQDISSYLNWYQQKPGKAPELLIYYGSELHSGVPSRFSGSGSGTDFTFTISSLEAEDAATYYCGQGNRLPYTFGQGTKVEIE
antigen binding (negative control) [3]: not detected regardless of the ATP concentration

B3: 6RRLSA1-6_037: clone with antigen-binding activity to human IL-6 receptor in the absence of ATP and adenosine (antibody, V domains shown)
VH: EVQLVESGGDLVKPGGGLRLSCAASGFTFSTYTMHWVRQAPGKGLEWVSSISSRSGHRHYADSVKGRFTISRDNAKNSLYLQMNSLRAEDTAVYYCARYGKKGNRNWVFDYWGQGTLVTVSS
VL: QSALTQPPSASGSPGQTVTISCTGTSTDVGGYNYVSWYQQHPGKAPKLMIYSTSKRPSGVPDRFSGSKSGNTASLTVSGLQAEDEADYFCSTTTYAKNPVFGGGTKLTVL
antigen-binding activity to human IL-6 receptor in the absence of ATP and adenosine (human IL6 receptor): had an antigen-binding activity

B4: 6RRLSA1-6_045: clone with antigen-binding activity to human IL-6 receptor in the absence of ATP and adenosine (antibody, V domains shown)
VH: B3 VH with T31G, G56N, H59S, Y99F, K102R, G103F, N104D
VL: B3 VL with G31T, S52K, T92S, T93R, T94R, A96R, K97R, N98S, P99L, V100S
antigen-binding activity to human IL-6 receptor in the absence of ATP and adenosine (human IL6 receptor): had an antigen-binding activity
